Measured values published in publication PMC4833410, “Structure-Guided Mutations in the Terminal Organelle Protein MG491 Cause Major Motility and Morphologic Alterations on Mycoplasma genitalium” (PLoS Pathogens, 2016).

Assays:
[1] = target: MG491-Nt (residues 1 to 308) (Mycoplasma genitalium G37) (UniProt Q9ZB78); assay: native MS; nano-ElectroSpray Ionization Mass Spectrometry, 10 μM MG491-Nt in 100 mM NH4OAc, acquisition range 500-8000 m/z
[2] = target: MG491-Nt (residues 1 to 308) (Mycoplasma genitalium G37) (UniProt Q9ZB78); assay: crystal structure; vapour diffusion at 20°C, 0.2 M lithium sulphate, 25% PEG 3350, pH 6.5-8.5; space group P2(1)2(1)2, four subunits in the asymmetric unit; SAD on seleno methionine MG491-Nt, averaging between crystals
[3] = target: MG491-Nt (residues 1 to 308) (Mycoplasma genitalium G37) (UniProt Q9ZB78); assay: SEC; Superdex 200 16/60 gel filtration column, 0.05 M Tris-HCl (pH 8.0), 0.15 M NaCl; apparent molecular weight
[4] = target: the molecule itself; assay: crystal structure; vapour diffusion at 20°C, 0.2 M lithium sulphate, 25% PEG 3350, pH 6.5-8.5; space group P2(1)2(1)2, four subunits in the asymmetric unit; SAD on seleno methionine MG491-Nt, averaging between crystals

Row | Molecule | stoichiometry N [1] | stoichiometry N [2] | stoichiometry N [3] | stoichiometry N [4]
1 | MG491-Nt (residues 1 to 308) (from UniProt Q9ZB78 1-308) (domain or fragment) | 4 | 4 | 4 | –
2 | full length MG491 protein (residues 1 to 346) (natural protein, MG491, terminal organelle protein of Mycoplasma genitalium G37, residues 1-346; the TGA codon of Trp232 was changed to TGG for expression in E. coli (no change of the protein); Cloned in pET21d between NdeI and XhoI; In the crystals the C-terminal region was lost by proteolysis; also called MG_491 gene product; wild type MG491; source: E. coli BL21 (DE3), purified (HisTrap HP, Superdex 200 16/60)) MVNNEYQQLNTLVESDDEADLVIANLVKQLNELKQILVSLDNQEASATAVTDKKEEEYNQNQSSFHNFSKETLQKQAKRGFLLLERCSLVGLQQLELEYVNLLGRSFDSYQQKTELLNNLKELVDEHFSDTEKIINTLEKIFDVIGGSEYTPVLNSFFNKLLSDPDPIQREIGLRQFIITLRQRFKKLSQKIDSSLKQIETEAKIATEQVQNSEVMFGPPDIANDHELNLNWPDSETDAILSSMENELEAALLAKHQEEPPLIVTPPSLIKPTVSQPEVEVVTPTNNTNFQPQVDLKPTDLKKQQKKKPLNFITRPVFKSNLPPKLSKDDIVHYAHQLLEKNTHNE | – | – | – | 4
3 | seleno methionine-labeled MG491-Nt (domain or fragment, seleno methionines at 36, 168 and 205, MG491 of Mycoplasma genitalium G37, residues 1-308, with Ile36, Ile168 and Ile205 replaced by (seleno)methionine; residues 65-204, 67-203, 66-203 and 62-205 of subunits A-D are seen in the structure; also called Seleno methionine MG491-Nt; MG491-Nt variant with Ile36, Ile168, Ile205 replaced by seleno methionines; source: E. coli BL21 (DE3) in SelenoMet medium, purified (HisTrap HP, Superdex 200 …)) MVNNEYQQLNTLVESDDEADLVIANLVKQLNELKQMLVSLDNQEASATAVTDKKEEEYNQNQSSFHNFSKETLQKQAKRGFLLLERCSLVGLQQLELEYVNLLGRSFDSYQQKTELLNNLKELVDEHFSDTEKIINTLEKIFDVIGGSEYTPVLNSFFNKLLSDPDPMQREIGLRQFIITLRQRFKKLSQKIDSSLKQIETEAKMATEQVQNSEVMFGPPDIANDHELNLNWPDSETDAILSSMENELEAALLAKHQEEPPLIVTPPSLIKPTVSQPEVEVVTPTNNTNFQPQVDLKPTDLKKQQKKK | – | – | – | 4
